Test results from patent US20170037146A1 (GENOR BIOPHARMA, published 2017).
Where a chain is given by its changes, count along the chain named.

B1: GB235-019 recombinant full-length IgG1 isotype antibody (wild type) (antibody, V domains shown)
VH: EVQLVQSGAEVKKPGAPVKVSCKASGYTFTSYDINWVRQATGQGLEWMGWMNPNSGNTGYAQKFQGRVTMTRNTSISTAYMELSSLRSEDTAVYYCARGYYLSRGDFWGQGTLVTVSS
VL: DIQMTQSPSSVSASVGDRVTITCRASQGISSWLAWYQQKPGKAPKLLIYAASSLQSGVPSRFSGSGSGTDFTLTISSLQPEDFATYYCQQANSFPLTFGGGTKVEIKR
modifications: N-linked glycan at Asn73 (Fab framework region 3)
notes: Full-length IgG1 expressed in FreeStyle 293F cells; Derived from scFv clone WG1-019; also called GB235-019WT; GB235-019 wild-type antibody
B2: GB235-019S75A mutated antibody (antibody, human IgG1, kappa, V domains shown)
VH: B1 VH with S75A
VL: B1 VL
notes: full-length IgG1; also called GB235-019575A
B3: GB235-019N73D mutated antibody (antibody, human IgG1, kappa, V domains shown)
VH: B1 VH with N73D
VL: B1 VL
notes: full-length IgG1
B4: GB235-019N73Q mutated antibody (antibody, human IgG1, kappa, V domains shown)
VH: B1 VH with N73Q
VL: B1 VL
notes: full-length IgG1

The binders below were run against T1, Human HER2 antigen (Sino Biological Inc., catalog number 10004-H08H) (human, UniProt P04626 23-652) (assay: ELISA on coated human HER2 antigen, anti-human IgG Fc-HRP detection).
T1 construct: Bought antigen coated on the ELISA plate
Procedure: Human HER2 antigen (purchased from Sino Biological Inc., catalog number: 10004-H08H) was diluted to 1 μg/ml using PBS buffer, and added to an ELISA plate at 100 μl/well to perform coating at 4° C. overnight. The plate was washed with PBST for four times, then 5% BSA (purchased from Amresco, USA, catalog number: 0332-100g, the solution being PBS) was added at 300 μl/well to perform blocking at room temperature for 1 hour. […] Each of the dilutions was added to an ELISA plate at 100 μl/well and incubated at room temperature for 1 hour. The plate was washed with PBST for four times, then HRP-labeled goat anti-human IgG Fc antibody (purchased from CalBiochem Inc., USA, catalog number: AP113A-K) was diluted at 1:10000 with PBS buffer, and added to the ELISA plate at 100 μl/well to perform incubation at room temperature for 1 hour. The plate was washed with PBST for four times, then a solution of 3,3′,5,5′-tetramethylbenzidine substrate (purchased from Tiangen Co., Ltd., catalog number: PA107-01) was added at 100 μl/well to perform incubation at room temperature for 15 minutes for visualization. A stop solution (1 M sulfuric acid) was added at 50 μl/well, and absorbance value was read at 450/630 nm wavelength on an M5 multi-functional ELISA plate (Molecular Devices Inc., USA).

Binding result, binds:
B1
B2
B3
B4
